Numbering of substitutions follows the chain as printed. Numbers in names are those of the source. Values belong to the binder of their own block, whether it stands above or below them.
What was measured:
GST-Rtt109 = target: T1, GST-Rtt109 (S. cerevisiae, UniProt Q07794 1-436); assay: pull-down
T1 sequence (looked up): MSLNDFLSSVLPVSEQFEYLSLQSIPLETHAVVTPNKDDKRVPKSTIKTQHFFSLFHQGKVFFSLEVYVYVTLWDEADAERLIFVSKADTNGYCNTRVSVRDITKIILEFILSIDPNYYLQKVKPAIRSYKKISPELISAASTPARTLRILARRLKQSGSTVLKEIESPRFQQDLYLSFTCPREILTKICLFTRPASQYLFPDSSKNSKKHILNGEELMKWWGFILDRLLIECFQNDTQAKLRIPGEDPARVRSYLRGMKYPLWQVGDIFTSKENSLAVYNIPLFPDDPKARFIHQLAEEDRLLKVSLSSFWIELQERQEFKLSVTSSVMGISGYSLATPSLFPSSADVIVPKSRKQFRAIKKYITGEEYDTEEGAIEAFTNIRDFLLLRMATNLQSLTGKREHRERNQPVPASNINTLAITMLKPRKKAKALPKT

GST-Kap60 = target: T2, GST-Kap60 (S. cerevisiae, UniProt Q02821 1-542); assay: pull-down
T2 sequence (looked up): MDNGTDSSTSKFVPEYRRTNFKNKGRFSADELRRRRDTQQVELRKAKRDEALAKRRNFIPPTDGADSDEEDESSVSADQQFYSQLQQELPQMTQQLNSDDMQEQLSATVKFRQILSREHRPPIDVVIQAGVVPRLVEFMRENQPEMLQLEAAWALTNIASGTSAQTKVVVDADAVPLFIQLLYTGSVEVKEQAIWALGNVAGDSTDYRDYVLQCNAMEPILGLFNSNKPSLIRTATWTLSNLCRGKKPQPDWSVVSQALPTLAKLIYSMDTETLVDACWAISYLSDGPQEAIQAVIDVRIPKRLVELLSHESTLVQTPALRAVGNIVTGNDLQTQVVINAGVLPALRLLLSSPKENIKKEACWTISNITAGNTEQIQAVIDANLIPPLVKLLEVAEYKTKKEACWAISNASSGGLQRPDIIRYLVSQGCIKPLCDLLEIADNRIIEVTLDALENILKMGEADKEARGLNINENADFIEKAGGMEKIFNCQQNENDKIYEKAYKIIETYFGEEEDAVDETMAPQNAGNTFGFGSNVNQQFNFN

binding result (GST-Rtt109): binds
binding result (GST-Kap60): binds
B1: MBP-Vps75 wild type (natural protein, S. cerevisiae, UniProt P53853 1-264, looked up)
chain: MMSDQENENEHAKAFLGLAKCEEEVDAIEREVELYRLNKMKPVYEKRDAYIDEIAEFWKIVLSQHVSFANYIRASDFKYIDTIDKIKVDWLALESEMYDTRDFSITFHFHGIEGDFKEQQVTKVFQIKKGKDDQEDGILTSEPVPIEWPQSYDSINPDLIKDKRSPEGKKKYRQGMKTIFGWFRWTGLKPGKEFPHGDSLASLFSEEIYPFCVKYYAEAQRDLEDEEGESGLSADGDSEDDDGSLGEVDLPLSDEEPSSKKRKV

binding result (GST-Rtt109): binds
B2: MBP-Vps75(K260G, K261G) (natural protein, S. cerevisiae, UniProt P53853 1-264, looked up)
chain: B1 chain with K260G, K261G

binding result (GST-Rtt109): binds
B3: MBP-Vps75(1–222) (domain or fragment, S. cerevisiae, UniProt P53853 1-222, looked up)
chain: MMSDQENENEHAKAFLGLAKCEEEVDAIEREVELYRLNKMKPVYEKRDAYIDEIAEFWKIVLSQHVSFANYIRASDFKYIDTIDKIKVDWLALESEMYDTRDFSITFHFHGIEGDFKEQQVTKVFQIKKGKDDQEDGILTSEPVPIEWPQSYDSINPDLIKDKRSPEGKKKYRQGMKTIFGWFRWTGLKPGKEFPHGDSLASLFSEEIYPFCVKYYAEAQRD

Reference: publication PMC3115401 (Traffic (Copenhagen, Denmark), 2011)
